Test results: paper doi:10.1101/651463 (bioRxiv, 2019)

Columns and labels:
V2R-βarr1 complex = V2R-βarr1 complex (Homo sapiens (Human). ; Rattus …, UniProt P30518;P29066); assay: co-IP
C5aR1-βarr1 complex = C5aR1-βarr1 complex (Homo sapiens (Human). ; Rattus …, UniProt P21730;P29066); assay: co-IP

B1: Intrabody30 (scFv, V domains shown)
VH: EVQLVESGGGLVQPGGSLRLSCAASGFNVYSSSIHWVRQAPGKGLEWVASISSYYGYTYYADSVKGRFTISADTSKNTAYLQMNSLRAEDTAVYYCARSRQFWYSGLDYWGQGTLVTVSS
VL: DIQMTQSPSSLSASVGDRVTITCRASQSVSSAVAWYQQKPGKAPKLLIYSASSLYSGVPSRFSGSRSGTDFTLTISSLQPEDFATYYCQQYKYVPVTFGQGTKVEIK
B1: binds (V2R-βarr1 complex); binds (C5aR1-βarr1 complex).
